Source: US20100324271A1 (TOKAI UNIVERSITY EDUCATIONAL SYSTEM, published 2010)

Target: T1, fetuin (UniProt P12763 19-359, carrying complex type and O-linked oligosaccharides)
T1 construct: Natural glycoprotein, separated by SDS-PAGE and blotted onto PVDF; also called fetuin carrying complex type and O-linked oligosaccharides
T1 sequence (looked up): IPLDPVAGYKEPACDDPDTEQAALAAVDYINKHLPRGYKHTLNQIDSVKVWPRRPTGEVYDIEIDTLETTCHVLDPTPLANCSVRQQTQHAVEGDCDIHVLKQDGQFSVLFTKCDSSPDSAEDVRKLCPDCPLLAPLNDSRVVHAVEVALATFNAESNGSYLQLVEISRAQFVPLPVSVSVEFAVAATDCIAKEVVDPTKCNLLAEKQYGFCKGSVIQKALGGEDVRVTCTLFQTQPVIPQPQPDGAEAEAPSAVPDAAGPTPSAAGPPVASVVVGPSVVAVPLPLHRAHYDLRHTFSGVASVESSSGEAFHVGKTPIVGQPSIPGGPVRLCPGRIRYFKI
Experiment: Western blot, 5 µg/lane on PVDF, phage detected with HRP-labeled anti-M13 antibody
Protocol: Fetuin, asialo-fetuin, RNase A, and RNase B (5 μg/lane) were separated by SDS-polyacrylamide gel electrophoresis (10% gel) and blotted onto a PVDF membrane. The SDS-PAGE gel was stained with Coomassie Brilliant Blue. The reactivity of phage antibody to natural glycoproteins was examined by Western blotting with M3-7 phage antibody followed by HRP-labeled anti-M13 phage antibody as described above.

B1: M3-7 phage antibody (scFv, V domains shown)
VH: QVQLQQSGPGLVKASETLSLTCAVSGYSISSGYYWGWIRQPPGKGLEWIGNIYHSGNTYYNPSLKSRVTISRDTSKNHFSLKLKSVTAADTAVYYCARADPGYMIFNWFDPWGQGTLVTVSS
VL: NFMLTQPPSASGTPGQRVTISCSGSSSNIGNNDVYWYQQFPGTAPKLLIYRNNQRPSGVPDRFSGSKSGTSASLAISGLRSEDEADYYCAAWDDSLIFGGGTKLTVLG
notes: also called Man3-specific scFv-displaying phage antibody
- binding result: no binding
